Measured values taken from IntAct's records for PubMed 24671035.

B1: FUN14 domain-containing protein 1 (Homo sapiens), Q8IVP5 (parent)
chain: MATRNPPPQDYESDDDSYEVLDLTEYARRHQWWNRVFGHSSGPMVEKYSVATQIVMGGVTGWCAGFLFQKVGKLAATAVGGGFLLLQIASHSGYVQIDWKRVEKDVNKAKRQIKKRANKAAPEINNLIEEATEFIKQNIVISSGFVGGFLLGLAS
B2: FUN14 domain-containing protein 1 (Homo sapiens), Q8IVP5 (parent)
chain: B1 chain
partner: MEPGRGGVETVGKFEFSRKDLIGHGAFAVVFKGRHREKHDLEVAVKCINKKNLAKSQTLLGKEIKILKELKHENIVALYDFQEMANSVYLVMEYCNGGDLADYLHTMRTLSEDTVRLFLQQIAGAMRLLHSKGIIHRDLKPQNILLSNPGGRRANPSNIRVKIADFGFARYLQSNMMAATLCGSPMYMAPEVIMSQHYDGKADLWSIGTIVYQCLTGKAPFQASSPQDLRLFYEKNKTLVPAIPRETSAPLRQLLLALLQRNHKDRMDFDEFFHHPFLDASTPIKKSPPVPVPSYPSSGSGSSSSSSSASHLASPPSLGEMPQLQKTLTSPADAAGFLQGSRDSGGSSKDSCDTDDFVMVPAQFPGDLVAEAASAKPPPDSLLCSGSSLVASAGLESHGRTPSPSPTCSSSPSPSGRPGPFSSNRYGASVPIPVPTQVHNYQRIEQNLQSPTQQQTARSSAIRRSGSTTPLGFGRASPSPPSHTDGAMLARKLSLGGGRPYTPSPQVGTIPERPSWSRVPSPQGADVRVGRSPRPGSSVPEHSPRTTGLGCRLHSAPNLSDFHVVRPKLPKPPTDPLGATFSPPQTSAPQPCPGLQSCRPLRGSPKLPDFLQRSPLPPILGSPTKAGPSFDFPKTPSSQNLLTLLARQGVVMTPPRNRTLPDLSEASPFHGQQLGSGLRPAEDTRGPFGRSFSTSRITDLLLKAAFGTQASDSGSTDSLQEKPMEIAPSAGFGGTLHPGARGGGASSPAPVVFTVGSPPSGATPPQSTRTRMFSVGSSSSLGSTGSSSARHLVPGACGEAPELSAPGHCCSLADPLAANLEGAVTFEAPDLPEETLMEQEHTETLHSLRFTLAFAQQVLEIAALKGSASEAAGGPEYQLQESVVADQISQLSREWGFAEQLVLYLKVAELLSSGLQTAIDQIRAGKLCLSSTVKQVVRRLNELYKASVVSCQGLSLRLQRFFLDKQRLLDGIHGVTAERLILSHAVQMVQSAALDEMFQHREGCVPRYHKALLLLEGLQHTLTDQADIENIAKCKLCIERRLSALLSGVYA

Variants of: B1
Conditions: with mlp3b_human MAP1LC3B

Row | effect of a mutation on the interaction | Variant
1 | increasing interaction | S17D

Variants of: B1
Conditions: with mlp3b_human MAP1LC3B
Remark: another data set of the same source

Row | effect of a mutation on the interaction | Variant
2 | decreasing interaction | S17A

Variants of: B2
Conditions: with ulk1_mouse Ulk1, O70405

Row | effect of a mutation on the interaction | Variant
3 | disrupting interaction | N118A
